Test results as given in patent US20170107294A1, “ANTI-CD14 ANTIBODIES AND USES THEREOF” (Nordlandssykehuset HF, priority 2014, published 2017).

Key:
[1] = system: porcine whole blood; assay: Adverse (IgG-Fc mediated) effects in nonactivated porcine whole blood; type: cell-based; conditions: absence of inflammatory stimuli
Experimental: (§1) The whole blood model has been described in detail previously (36). Fresh human venous or porcine arterial blood was drawn directly into tubes containing the anticoagulant lepirudin (Pharmion) at a final concentration of 50 mg/ml. In 1.8-ml Cryo Tube vials (Nunc, Roskilde, Denmark), the blood was preincubated with up to 20 mg/ml anti-human CD14 (r18D11 or 18D11), or 50 mg/ml anti-porcine CD14 (rMil2 or Mil2) at 37° C. for 10 min prior to an additional 2-h incubation in the presence of 100 ng/ml ultrapure LPS from Escherichia coli 0111:B4 (InvivoGen, San Diego, Calif.) for human blood or 1 3 105/ml heat-inactivated E. coli (strain LE392, ATCC33572) for porcine blood. As negative controls, PBS with MgCl2 and CaCl2 (Sigma-Aldrich) and isotype controls were used. Adverse effects were tested using nonactivated whole blood samples. After the addition of 10 mM (human) or 20 mM (porcine) EDTA, plasma was gained by 15 min centrifugation at 3220 3 g and 4° C. Levels of TNF, IL-6, and IL-1b in human plasma were determined using Bioplex technology (Bio-Rad Laboratories AB). Levels of TNF, IL-1b, and IL-8 in porcine plasma were determined using ELISA (Quantikine, R&D Systems, Minneapolis, Minn.). Platelet count was quantified by impedance using a CELL-DYN Sapphire hematology analyzer (Abbott Laboratories, Abbott Park, Ill.).

[2] = system: porcine whole blood; assay: rMil2 combined with C5 inhibitor OmCI: cytokine production in porcine whole blood ex vivo; type: cell-based; conditions: E. coli-incubated porcine whole blood
Experimental: as §1
Whole blood was incubated with 1 3 106 E. coli per milliliter for 2 h at 37° C. in the absence or presence of inhibitors and controls. TNF, IL-1b, and IL-8 blood was analyzed as described above.

[3] = parameters: species or system Norwegian domestic piglets (Sus scrofa domesticus); conditions: in vivo, iv
Experimental: In vivo application of anti-porcine CD14 Abs Norwegian domestic piglets (Sus scrofa domesticus, outbred stock) with a weight of 2.2 kg were isolated at the day of intervention. Anesthesia was induced with 5% sevoflurane in a mixture of air and oxygen until sleep. After establishment of an i.v. line, the piglets received fentanyl (15-20 mg/kg) were tracheotomized in the supine position, and a microcuffed endotracheal tube from Kimberly-Clark (Roswell, GA) with inner diameter of 4 mm was inserted. Maintenance anesthesia was provided with an infusion of fentanyl (50 mg/kg/h, and isoflurane 1-2% in oxygen-enriched air administered from a Leon plus ventilator from Heinen and Loevenstein (Bad Ems, Germany). An artery line was inserted in the right or left carotid artery for blood sampling during the experiments and for continuous measurement of mean artery pressure. The piglets were monitored with electrocardiography and pulse oximetry. Ventilator settings were adjusted to maintain 7.40 pH and oxygen saturation above 96%. Hemodynamic parameters were collected using ICUpilot software, CMA Microdialysis (Stockholm, Sweden) every 30 s. To compensate for hydration needs, the animals received a background infusion of isotonic sodium glucose solution, Salidex (Braun Medical A/S, Vestskogen, Norway) at 10 ml/kg/h. To compare the effect of the Mil2 and the rMil2 on healthy piglets, increasing amounts of a stock solution of 1 mg/ml rMil2 or Mil2 (batch 1106) were injected i.v. into two piglets at indicated times to a maximum dose of 5.36 mg/kg, and arterial blood samples were collected, in tubes containing the anticoagulants EDTA or citrate. To investigate the biological effect of rMIL2 on the inflammatory response, two piglets underwent the E. coli sepsis regimen as described previously (17). One control piglet was gives saline, and one piglet was given a bolus dose of 5 mg/kg rMil2 before infusion of the bacteria.

[4] = system: E. coli; conditions: whole pig blood; cited from earlier work
[5] = molecular target: T1, porcine CD14 (Sus scrofa, UniProt F6PST4); assay: CD14 binding in flow cytometry, porcine whole blood (competition with FITC-conjugated Mil2); parameters: human monocyte and porcine granulocyte populations were selected based on the forward scatter-side scatter dot plot; endogenous in cells; host or cells: granulocytes in fresh porcine whole blood (EDTA); binding sites blocked (competition with FITC-conjugated Mil2 in binding to CD14) / direct binding to porcine granulocytes: dose or concentration left out as unconfirmed; conditions: Ab; granulocytes in porcine whole blood
T1 sequence (F6PST4 21-373): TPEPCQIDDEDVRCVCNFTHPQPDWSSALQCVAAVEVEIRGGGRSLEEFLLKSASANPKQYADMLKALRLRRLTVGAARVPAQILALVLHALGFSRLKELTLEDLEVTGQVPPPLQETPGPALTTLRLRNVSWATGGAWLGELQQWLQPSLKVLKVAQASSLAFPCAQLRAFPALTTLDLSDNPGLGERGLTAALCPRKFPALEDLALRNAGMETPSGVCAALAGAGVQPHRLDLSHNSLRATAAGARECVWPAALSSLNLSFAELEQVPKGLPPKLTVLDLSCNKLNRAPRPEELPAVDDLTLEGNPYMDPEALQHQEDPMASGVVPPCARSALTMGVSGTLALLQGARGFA
Experimental: Fresh human or porcine whole blood was drawn into tubes containing the anticoagulants lepirudin (Refludan; Pharmion, Copenhagen, Denmark) or EDTA, respectively. Blood samples were preincubated for 10 min with Ab, #20 mg/ml anti-human CD14 Abs r18D11, 18D11 F(ab)92 (batch 2068, lot 1383), or isotype controls raNIP and mIgG1 F(ab)92 (lot 1501), or […] anti-porcine CD14 Abs rMil2, Mil2 (lot 1106), or the isotype controls 4770 RECOMBINANT ANTI-CD14 Abs Downloaded from University of Oslo, Library of Medicine and Health Science on Jan. 24, 2014 for IgG2/4 and mIgG2b, eculizumab (Soliris) and mIgG2b (lot 1631), respectively. Endotoxin-free Dulbecco phosphate buffered saline, PBS (Sigma-Aldrich), was used for diluting the Abs. Subsequently, blood samples were incubated for another 15 min in the presence of detection Ab, 10 mg/ml 18D11 (batch 719, lot 3110) or 150 mg/ml FITC-conjugated Mil2 (batch 1107). Their binding was detected either by using a secondary PEconjugated anti-mouse IgG or through direct FITC fluorescence. Erythrocytes were lysed using FACS Lysing solution (BD Biosciences, Franklin Lakes, N.J.; human blood) or a solution of 0.16 M ammonium chloride, 10 mM sodium bicarbonate, 0.12 mM EDTA (Tritiplex III) and 0.04% (v/v) paraformaldehyde (porcine blood). In subsequent flow cytometry analyses, human monocyte and porcine granulocyte populations were selected based on the forward scatter-side scatter dot plot, and CD14 binding was recorded as mean or median fluorescence intensity, respectively. In contrast to humans, porcine CD14 is constitutively expressed on mature granulocytes (32, 33). Fluorescence intensities in the presence of the fluorescently labeled Abs only were set to 100%. Flow cytometry analyses on human samples were performed using an LSRII and FACSDiva software version 5.0.3; porcine samples were analyzed on a FACSCalibur using Cell Quest Pro version 5.2.1 for data acquisition (all from BD Biosciences).

B1: Mil2: mouse anti-porcine CD14 IgG2b clone Mil2 (Serotec), original murine clone (antibody, V domains shown)
VH: QVRLQQPGAELVRPGASVKLSCKASGYTFTTYWMNWVKQRPEDGLEWIGRIDPYDSETHYNQNFKDKAILTVDKSSSTAYMQLSSLTYEDSAVYYCTRKEGRQWGAYFDYWGQGTTLTVSSA
VL: DIVMTQSQKFMSTSVGDRVSVTCKASQYVGTNVAWYQQKPGQSPKALIQSASYRCSGVPDRFTGSGSGTDFTLTISNVQSEDLADYFCQQYNTYVTFGGGTKLELKR
spontaneous IL-8 release ([1]; 50 mg/ml): strong spontaneous IL-8 release | platelet counts / platelet aggregation ([1]; up to 71.4 mg/ml): dose-dependent drop in platelet counts | IL-1b release (effect in words) [2]: not significantly reduced | IL-8 release (effect in words) [2]: markedly enhanced the release | TNF release (effect in words) [2]: significantly reduced | maximum heart rate [3]: ~300 beats/min | heart rate (effect in words) ([3]; 0.32 mg/kg): caused an increase in heart rate | E. coli survival [4]: does not affect E. coli survival | binding sites blocked (competition with FITC-conjugated Mil2 in binding to CD14) [5]: ~50%
